{
  "source": "paper PMC12494797",
  "about": "“Multi-domain O-GlcNAcase structures reveal allosteric regulatory mechanisms” (Nature Communications, 2025)",
  "molecules": {"B1": {"name": "His-tagged human OGA pHAT domain (hpHAT) (domain or fragment, UniProt O60502 710-916, looked up)", "chain": "PTSKVYTIRPYFPKDEASVYKICREMYDDGVGLPFQSQPDLIGDKLVGGLLSLSLDYCFVLEDEDGICGYALGTVDVTPFIKKCKISWIPFMQEKYTKPNGDKELSEAEKIMLSFHEEQEVLPETFLANFPSLIKMDIHKKVTDPSVAKSMMACLLSSLKANGSRGAFCEVRPDDKRILEFYSKLGCFEIAKMEGFPKDVVILGRSL", "notes": "pHAT domain of human O-GlcNAcase (OGA), residues 710-916; non-cleavable 6xHis-tag; also called human pHAT; isolated human pHAT domain; source: E. coli BL21(DE3) pLysS, purified (NiNTA, Superdex 75)"}, "B2": {"name": "Trichoplax adhaerens O-GlcNAcase (TaOGA), residues 5-723 (enzyme, UniProt A0A0D5X2Y8 5-723, looked up)", "chain": "KFLSGVVEGFYGKPWSFEQRKTLFSNMAKWGLNTYMYGPKDDEKHRAAWKQAYSKREGDSLRALIRAAEESGILFIYAISPGVDITYSSNRDMKFLKDKLDQIRNFGCNSFAIFFDDIDTVMCLQDQEEFESFAAAQVEVTNEIYKYLGMPANFLFCPTEYCAARADPNVKESKYLVTVGTGLHSDIHIMWTGPKVVSNKISVESILELQTVLRRKPVIWDNIHANDYEQGRLNLGPYDCRPAELMESLNGIFTNPNCEFELNYVPIRTFSLWCQSKRTRFNYDVEKALEQSIREWTEEFCIPRLPDGYLLEADTSDTNVNEYMDDEMQSDSRPISPANSMETDKDELTVKDIRLLVELFYLPQKHGKTANDLLAQAKWLKSNFRIAALSRKPNDTSEGSNLDEHNTDYIAAKEWDKRFSKFRSICQIIHQFGDRLMTCRNRVLLYEVYNYVADLCGILYHLISRIHSLANPEKLEKRSDSEQSSFRYGGFVGDIHRLIVSTDEYEESTLKNSDAYVIRPFMPSDEETLYDLCLKSCIENSNGDEIYKREPRIIGDRDLGAYIYLHPEYIYVLEDDRDKICGYLCGALDSKQFYERYESEWLTQIRDRHPQPENDIASWTPEEIVANSFYNFTPPTDVSVLYLSHLEARFDSSVPEKVIKRIIRFILEQLKAKGSYGASMLIDSWRTNLRRIFTSMGFVDLQEYSWMSEQKCMIAIKLM", "notes": "TaOGA (TaOGA54), Trichoplax adhaerens, residues 5-723; the results call it full-length; also called TaOGA54; full-length TaOGA; source: E. coli BL21(DE3) pLysS, purified (Ni-NTA, PreScission cleavage, Superdex 200); not shown: His6, N-terminal, cleaved"}},
  "key": {"[1]": {"target": "T1, OgHAT (OgAT) (Oceanicola granulosus, UniProt Q2CEE2)", "T1 construct": "gene OG2516_04134; amine-biotinylated, captured on streptavidin CM5 chip; not known to form dimers", "T1 sequence (Q2CEE2 whole entry)": "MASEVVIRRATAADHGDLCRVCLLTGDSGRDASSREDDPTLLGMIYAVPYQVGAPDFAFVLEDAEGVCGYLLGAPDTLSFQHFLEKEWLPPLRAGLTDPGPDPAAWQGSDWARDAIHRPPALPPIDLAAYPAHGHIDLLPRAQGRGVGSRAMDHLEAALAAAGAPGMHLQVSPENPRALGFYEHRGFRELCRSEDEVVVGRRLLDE", "assay": "SPR (Biacore […]), […] equilibrium-binding fit"}, "[2]": {"target": "His-tagged Trichoplax adhaerens OGA pHAT domain (TapHAT) (Trichoplax adhaerens)", "assay": "SEC; analytical; Superdex 200 Increase 10/300 GL; 500 μL of His-tagged pHAT at 1 mg/mL; 25 mM Tris pH 7.5, 150 mM NaCl, 0.5 mM TCEP; LMW calibration standards"}, "[3]": {"target": "the molecule itself", "assay": "SEC; analytical; Superdex 200 Increase 10/300 GL; 500 μL of His-tagged pHAT at 1 mg/mL; 25 mM Tris pH 7.5, 150 mM NaCl, 0.5 mM TCEP; LMW calibration standards"}, "[4]": {"target": "the molecule itself", "assay": "cryo-EM structure; 0.5 mg/mL hOGA or TaOGA vitrified at 4 °C; Titan Krios 300 kV; CryoSPARC"}},
  "data": [
    {"molecule": "CC(=O)SCCNC(=O)CCNC(=O)[C@H](O)C(C)(C)COP(=O)(O)OP(=O)(O)OC[C@H]1O[C@@H](n2cnc3c(N)ncnc32)[C@H](O)[C@@H]1OP(=O)(O)O", "note": "[acetyl-CoA]", "values": [
      {"measurement": "Kd", "setting": "[1]", "value": 5, "unit": "mM"}
    ]},
    {"molecule": "His-tagged Trichoplax adhaerens OGA pHAT domain (TapHAT) (domain or fragment)", "values": [
      {"measurement": "stoichiometry N", "setting": "[2]", "value": 2}
    ]},
    {"molecule": "B1", "values": [
      {"measurement": "stoichiometry N", "setting": "[3]", "value": 2}
    ]},
    {"molecule": "B2", "values": [
      {"measurement": "binding result", "setting": "[4]", "value": "binds"}
    ]}
  ]
}
